# Measurements from patent US20260193378A1.
# B1: 19E3 monoclonal antibody (antibody, V domains shown)
# VH: EVQLVESGGGLVQTGKSLKLSCEASGFTFSDFDMNWVRQAPGKGLEWVAYINGGSGVIFYADAVKGRFTISRDNAKNLLFLQMNNLKSEDSAMYYCAREELGRRYYFDYWGQGTMVTVSS
# VL: SQPVLTQSPSASASLSGSVKLTCTLSSEHSSYNIAWYQQHPDKAPKYVMYLKSDGSHFKGDGIPDRFSGSSSGAHRYLSISNVQSEDDATYFCGAGYTISGQYGYVFDSGTQLTVLG
# B2: 12D11 monoclonal antibody (antibody, V domains shown)
# VH: AVRLLESGGGLVKPEGALKLSCVASGFDLSDYFMGWVRQAPGKGLEWVAHIYPQSYDYATYYSGSVQGRFTISRDDSRSMVYLQMNNLRTEDTATYYCTKDGDVGFWGQGTMVTVSS
# VL: DIQVTQSPTLLSASLGDKVTINCLASQDISNELNWYQQKSGQSPTLLIYNGKNLQSGVPSRFSGQYSGRSFTISINNVEPEDVATYFCLQHYSFPLTFGDGSKLEMKR
# What was measured:
# [1] = target: first-generation PSMA-targeting Pz1 CAR; assay: flow cytometry on CAR+ PG13 fibroblasts, FL2-H PE against FL1-H FITC (no staining), live gate, 9029 events; lower right panel, taken as Pz1 from the panel order of FIG. 18A and 18C; first panel (PG13 sample line) in the same gate: 0
# [2] = target: CD19-targeting first-generation 19z1 CAR; assay: flow cytometry on CAR+ PG13 fibroblasts, FL2-H PE against FL1-H FITC (no staining), live gate, 7308 events; lower left panel, sample line '19z1-19E9-PE 1 to 1000', same position as 19z1 in FIG. 18A and 18C; first panel (PG13 sample line) in the same gate: 0
# [3] = target: first-generation PSMA-targeting Pz1 CAR; assay: flow cytometry on PG13 fibroblasts expressing the Pz1 CAR (panel title 'PZ1', sample line 'PZ1-12D11-H'), 12D11 detected with anti-hamster IgG FITC, FL1-H FITC against FL2-H PE, live gate, 9102 events; parental PG13 cells in the same gate: 0.85
# [4] = target: CD19-targeting first-generation 19z1 CAR; assay: flow cytometry on PG13 fibroblasts expressing the 19z1 CAR (panel title '19z1', sample line '19z 1-12D11-H'), 12D11 detected with anti-hamster IgG FITC, FL1-H FITC against FL2-H PE, live gate, 7334 events; parental PG13 cells in the same gate: 0.85
# [5] = target: CD19-targeting second-generation 1928z CAR; assay: flow cytometry on PG13 fibroblasts expressing the 1928z CAR (panel title '19-28z1 cells', sample line '1928z 1-12D11-H'), 12D11 detected with anti-hamster IgG FITC, FL1-H FITC against FL2-H PE, live gate, 9569 events; parental PG13 cells in the same gate: 0.85
Binder,gate frequency (percent of live events in the PE-positive gate) [1],gate frequency (percent of live events in the PE-positive gate) [2],gate frequency (percent of live events in the FITC-positive gate) [3],gate frequency (percent of live events in the FITC-positive gate) [4],gate frequency (percent of live events in the FITC-positive gate) [5]
B1,0.011,99.2,,,
B2,,,76.4,96.3,67.9
